# From patent US8703907B2, “Controlled drug release from dendrimers” (Prolynx LLC, priority 2010, dated 2014)
# Columns and labels:
# [1] = β-eliminative cleavage of DNP-Lys carbamates (HPLC); type: physicochemical; details: after 5 days at 37° C. and pH 7.4
# Protocol: A series of model linker scaffolds having a range of functional groups as potential pKa modulators (substituted aromatics, ketones, nitriles, sulfones) were designed, prepared and linked via carbamate bonds to Ne-2,4-dinitrophenyl-L-lysine (Ne-DNP-Lys) for evaluation of release rates; DNP-Lys is water soluble and is a strong chromophore to permit HPLC-UV analysis. Rates of release at pH 7.4 and/or 8.3 were determined.
# The DNP carbamates were prepared as follows. A suspension of N-DNP-L-Lys HCl (35 mg, 0.1 mmol) in 600 μL of water was treated successively with 1.0 N NaOH (200 μL) and 1.0 M NaHCO3. A 0.1 M solution of the N—HS carbonate in acetonitrile (1.0 mL) was added to the stirred mixture to give a clear yellow solution. After 1 hr, the mixture was diluted with 10 mL water and loaded onto a Bond-Elut™ C18 extraction column (1 gm). The column was washed successively with water, 1% CF3CO2H/water, water, and 50% MeOH/water. The product was eluted with MeOH, then evaporated to give the product as a yellow glass. Kinetic analyses were performed by HPLC (C18; linear MeOH/water+0.5% HOAc gradient) using a UV/vis monitor. The areas under the DNP and starting material peaks were integrated to determine extent of reaction.
# The half-lives for cleavage span 2 hr to >10 days. […]
# [2] = hydrolysis of carbamate in 50% human serum; type: in vitro ADME; details: 1 week at 37° C.
# Excerpt: The half-lives for cleavage span 2 hr to >10 days. […] In general, compared to C—H, a) electron withdrawing groups at R^1 increase the rate; b) alkyl groups at R^3 increase the rate; and c) aryl moieties at R^3 decrease the rate.
# [3] = system: plasma proteases; details: cited from earlier work
# [4] = in vivo; cited from earlier work
# [5] = molecular target: T1, GLP1 receptor (Rattus norvegicus, UniProt P32301); experiment: GLP1 receptor agonism in membrane or cell-based assays after β-eliminative release; details: native exendin released by mild base
# T1 construct: in membrane or cell-based assays (e.g., RIN-m5f cells, ATCC); host or cells: RIN-m5f cells
# T1 sequence (P32301 22-463): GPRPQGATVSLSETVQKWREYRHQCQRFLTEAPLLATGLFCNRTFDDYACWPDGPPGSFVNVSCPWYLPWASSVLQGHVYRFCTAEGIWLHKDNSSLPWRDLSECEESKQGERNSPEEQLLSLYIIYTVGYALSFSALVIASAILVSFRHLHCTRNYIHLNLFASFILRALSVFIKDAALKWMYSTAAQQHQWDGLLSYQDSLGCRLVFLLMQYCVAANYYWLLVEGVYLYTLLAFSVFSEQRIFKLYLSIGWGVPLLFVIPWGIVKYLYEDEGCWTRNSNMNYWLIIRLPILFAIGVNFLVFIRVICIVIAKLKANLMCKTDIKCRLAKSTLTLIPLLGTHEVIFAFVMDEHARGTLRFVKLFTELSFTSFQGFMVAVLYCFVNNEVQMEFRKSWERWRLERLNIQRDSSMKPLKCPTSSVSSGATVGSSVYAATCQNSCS
# Protocol: The PEG and PEG-dendrimer conjugates are tested as agonists of the GLP1 receptor in membrane or cell-based assays (e.g., RIN-m5f cells, ATCC as described (Young, A., et al., (2000) WO00/66629) pages 74-75) before and after β-eliminative release of native exendin.
molecule,measurement,setting,value
"O=C(N[C@@H](CCCCNc1ccc([N+](=O)[O-])cc1[N+](=O)[O-])C(=O)O)OCc1ccccc1 [O-benzyl-N—(Ne-2,4-DNP-Lys) carbamate]",cleavage,[1],less than 0.25%
same,hydrolysis in 50% human serum,[2],no detectable hydrolysis
"Exendin-4: 39-amino acid peptide from the Gila monster, agonist of the GLP-1 receptor",t1/2 against plasma proteases in vitro,[3],~10 h
same,half-life,[4],2.5 h
same,activity as GLP1 agonists,[5],full activity
GLP-1: glucagon-like peptide 1,plasma lifetime,[4],~5 min
